{"source": "patent US11547739B2", "about": "“Peptides and methods related to ICOS signaling” (priority 2015, dated 2023)", "molecules": {"B1": {"name": "WT TRAF2 (protein)", "chain": "MAAASVTPPGSLELLQPGFSKTLLGTKLEAKYLCSACRNVLRRPFQAQCGHRYCSFCLASILSSGPQNCAACVHEGIYEEGISILESSSAFPDNAARREVESLPAVCPSDGCTWKGTLKEYESCHEGRCPLMLTECPACKGLVRLGEKERHLEHECPERSLSCRHCRAPCCGADVKAHHEVCPKFPLTCDGCGKKKIPREKFQDHVKTCGKCRVPCRFHAIGCLETVEGEKQQEHEVQWLREHLAMLLSSVLEAKPLLGDQSHAGSELLQGCESLEKKTATFENIVCVLNREVERVAMTAEACSRQHRLDQDKIEAPSSKVQQLERSIGLKDLAMADLEQKVSEMEASTYDGVFIWKISDFARKRQEAVAGRIPAIFSPAFYTRRYGYKMCLRIYLNGDGTGRGTHLSLFFVVMKGPNDALLRWPFNQKVTLMLLDQNNREHVIDAFRPDVTSSSFQRPVNDMNIASGCPLFCPVSKMEAKDSYVRDDAIFIKAIVDLTGL", "modifications": "left off: small tags and cut ends"}, "B2": {"name": "TRAF3 (protein, UniProt Q13114 1-568, looked up)", "TNF receptor-associated …": "MESSKKMDSPGALQTNPPLKLHTDRSAGTPVFVPEQGGYKEKFVKTVEDKYKCEKCHLVLCSPKQTECGHRFCESCMAALLSSSSPKCTACQESIVKDKVFKDNCCKREILALQIYCRNESRGCAEQLMLGHLLVHLKNDCHFEELPCVRPDCKEKVLRKDLRDHVEKACKYREATCSHCKSQVPMIALQKHEDTDCPCVVVSCPHKCSVQTLLRSELSAHLSECVNAPSTCSFKRYGCVFQGTNQQIKAHEASSAVQHVNLLKEWSNSLEKKVSLLQNESVEKNKSIQSLHNQICSFEIEIERQKEMLRNNESKILHLQRVIDSQAEKLKELDKEIRPFRQNWEEADSMKSSVESLQNRVTELESVDKSAGQVARNTGLLESQLSRHDQMLSVHDIRLADMDLRFQVLETASYNGVLIWKIRDYKRRKQEAVMGKTLSLYSQPFYTGYFGYKMCARVYLNGDGMGKGTHLSLFFVIMRGEYDALLPWPFKQKVTLMLMDQGSSRRHLGDAFKPDPNSSSFKKPTGEMNIASGCPVFVAQTVLENGTYIKDDTIFIKVIVDTSDLPDP"}, "B3": {"name": "WT ICOS (protein)", "chain": "EINGSANYEMFIFHNGGVQILCKYPDIVQQFKMQLLKGGQILCDLTKTKGSGNTVSIKSLKFCHSQLSNNSVSFFLYNLDHSHANYYFCNLSIFDPPPFKVTLTGGYLHIYESQLCCQLKFWLPIGCAAFVVVCILGCILICWLTKKKYSSSVHDPNGEYMFMRAVNTAKKSRLTDVTL"}}, "key": {"Tbk1 transcript": {"test_system": "Tbk1 transcript", "assay": "In vivo knockdown efficiency by quantitative PCR in sorted transduced cells", "set-up": "species or system mouse", "settings": "sorted shTbk1+CD4+ T cells", "protocol": "Isolation of mRNA, cDNA synthesis and real-time PCR. Total RNA was extracted from sorted CD4^+ Ametrine- and CD4^+ Ametrine^+ cells using the RNeasy kit (Qiagen). RNA was used to synthesize cDNA by the SuperScript III FirstStrand cDNA synthesis kit (Life Technologies). […]; Relative gene expression levels were determined in triplicates, calculated using the 2-° Act method and normalized to the level of ACTB."}, "TBK1 [1]": {"target": "T1, TBK1 (Homo sapiens, UniProt Q9UHD2)", "T1 sequence (Q9UHD2 1-729)": "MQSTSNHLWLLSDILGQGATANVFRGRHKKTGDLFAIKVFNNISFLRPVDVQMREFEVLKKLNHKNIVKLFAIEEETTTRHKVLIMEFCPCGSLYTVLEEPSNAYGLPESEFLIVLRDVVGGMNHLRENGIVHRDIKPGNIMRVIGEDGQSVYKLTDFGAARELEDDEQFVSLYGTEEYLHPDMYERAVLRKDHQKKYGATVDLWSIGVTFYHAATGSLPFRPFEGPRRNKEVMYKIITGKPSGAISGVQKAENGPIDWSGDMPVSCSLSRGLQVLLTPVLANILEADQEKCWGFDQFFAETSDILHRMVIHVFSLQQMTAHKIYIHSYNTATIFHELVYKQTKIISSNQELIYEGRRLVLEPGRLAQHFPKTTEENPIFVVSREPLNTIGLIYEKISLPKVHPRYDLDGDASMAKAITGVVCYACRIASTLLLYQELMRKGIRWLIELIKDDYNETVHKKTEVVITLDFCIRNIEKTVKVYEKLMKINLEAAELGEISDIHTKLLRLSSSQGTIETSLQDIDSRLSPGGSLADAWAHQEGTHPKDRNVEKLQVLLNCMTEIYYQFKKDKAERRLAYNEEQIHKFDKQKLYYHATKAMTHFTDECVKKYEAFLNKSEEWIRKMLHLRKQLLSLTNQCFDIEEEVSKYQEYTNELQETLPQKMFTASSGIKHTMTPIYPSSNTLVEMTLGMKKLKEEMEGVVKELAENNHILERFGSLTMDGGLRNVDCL", "assay": "Anti-FLAG immunoprecipitation of WT or mutated TRAF2/TRAF3 in HEK293T cells", "format": "binding", "set-up": "endogenous in cells", "settings": "FLAG-tagged TRAF in HEK293T cells", "protocol": "(§1) Immunoprecipitation and immunoblotting. The human leukemic Jurkat T cell line, JTAg, was previously described (Li, J et al. J Immunol 2013, 191(1): 200-207; Rolf J et al., J Immunol 2010, 185(7): 4042-4052) and the HEK 293T cell line was obtained from ATCC. These cell lines have not been recently STR profiled but tested negative for mycoplasma contamination. JTAg cells in logarithmic growth phase were transfected with plasmid DNAs by electroporation and incubated for 24 hours. Transfection of HEK293T cells was carried out via liposomes-mediated transfection with plasmid DNAs. For experiments using primary mouse T cells, purified CD4+ T cells were activated in vitro with anti-mouse CD3 (clone 145-2C11) and CD28 (clone 37.51) for 48 hours prior to resting in the presence of IL-2 for another 48 hours. Transfected JTAg cells and preactivated mouse CD4^+ T cells were stimulated with anti-CD3 and anti-ICOS (clone C398.4A) monoclonal antibodies (mAbs) in the presence of a cross-linking antibody (Ab) for 2 minutes. […] The intensity of bands was measured using the ImageJ software (NIH). To determine the ratio of TBK1 to p85a, the band intensity on IP blots and WCL blots were measured for TBK1 and p85a, respectively, and the ratio was expressed as (IP TBK1)/(WCL TBK1): (IP p85a)/(WCL p85a)."}, "[2]": {"test_system": "GC B cells and plasma cells", "format": "in vivo, mouse", "settings": "KLH-gp61 in alum, 10 d"}, "TBK1 [3]": {"target": "T1, TBK1", "assay": "ICOS immunoprecipitation and immunoblotting in transfected Jurkat (JTAg) T cells", "format": "binding", "set-up": "endogenous in cells; host or cells: Jurkat JTAg T cells transfected with ICOS plasmids", "settings": "Jurkat (JTAg) cells stimulated with anti-CD3 plus -ICOS mAbs", "protocol": "as §1"}, "Tfh cells": {"test_system": "Tfh cells", "settings": "mouse, in vivo"}}}
{"molecule": "shTbk1 (guide AAGACATAAAGTGCTTATTATG; expressed or natural sequence)", "values": [{"measurement": "Tbk1 transcript reduced", "setting": "Tbk1 transcript", "result": "~80", "unit": "%"}]}
{"molecule": "B1", "values": [{"measurement": "interaction with TBK1", "setting": "TBK1 [1]", "result": "interacted strongly"}]}
{"molecule": "B2", "values": [{"measurement": "interaction with TBK1", "setting": "TBK1 [1]", "result": "interacted strongly"}]}
{"molecule": "B3", "values": [{"measurement": "B cell differentiation (Fas+GL7+ GC B cells and class-switched IgD-CD138+ plasma cells)", "setting": "[2]", "result": "supported the differentiation"}, {"measurement": "interaction with endogenous TBK1 in ICOS IPs", "setting": "TBK1 [3]", "result": "interacted strongly"}, {"measurement": "CXCR5+SLAMlo Tfh cell population", "setting": "Tfh cells", "result": "differentiated"}, {"measurement": "differentiation of CXCR5+PD1hi GC Tfh cells", "setting": "Tfh cells", "result": "restored"}, {"measurement": "nascent CXCR5+Bcl6+ Tfh cells", "setting": "Tfh cells", "result": "able to differentiate"}]}
